Test [1] concerns the target T1, heat-shock protein 90β (HSP90β), endogenous, in conditioned medium of SCp2 cells (mouse, UniProt P11499 2-724).
T1 construct: also called HSP90b; extracellular HSP90β
In words: reverse co-IP of HSP90β protein complexes from CM of control SCp2 cells, Western blot. How it is done:
For co-IP of HSP90β protein complexes, CM was incubated with 10 μg of control rabbit IgG or anti-HSP90β antibody for 16 h at 4° C. Precipitation was performed with protein G sepharose beads (17-0618-01, GE Healthcare) for 4 h at 4° C. The beads were then washed three times with 0.05% Tween/PBS, and the immune complexes were directly eluted with electrophoresis sample buffer and analyzed by Western blotting.

Test [2] addresses T2, Itgb1 (endogenous mouse integrin-beta1 of EpH4 mammary epithelial cells) (mouse, UniProt P09055 21-798).
T2 construct: Endogenous protein in EpH4 cell lysate; also called integrin-β1
Nature of the test: anti-FLAG M2 bead IP from EpH4 lysate, Western blot for Itgb1. The source says: FIG. 14. […] The heat map indicator is presented to show the intensity of the FRET signal. (iv) Quantification of FRET signals. ˜200 FRET signals were quantified on each condition. Data are mean+/−S.E., (****) indicates p<0.001. […] Immuno-complexes are used for IP-WB analysis.

T1 sequence (P11499 2-724 limits assumed): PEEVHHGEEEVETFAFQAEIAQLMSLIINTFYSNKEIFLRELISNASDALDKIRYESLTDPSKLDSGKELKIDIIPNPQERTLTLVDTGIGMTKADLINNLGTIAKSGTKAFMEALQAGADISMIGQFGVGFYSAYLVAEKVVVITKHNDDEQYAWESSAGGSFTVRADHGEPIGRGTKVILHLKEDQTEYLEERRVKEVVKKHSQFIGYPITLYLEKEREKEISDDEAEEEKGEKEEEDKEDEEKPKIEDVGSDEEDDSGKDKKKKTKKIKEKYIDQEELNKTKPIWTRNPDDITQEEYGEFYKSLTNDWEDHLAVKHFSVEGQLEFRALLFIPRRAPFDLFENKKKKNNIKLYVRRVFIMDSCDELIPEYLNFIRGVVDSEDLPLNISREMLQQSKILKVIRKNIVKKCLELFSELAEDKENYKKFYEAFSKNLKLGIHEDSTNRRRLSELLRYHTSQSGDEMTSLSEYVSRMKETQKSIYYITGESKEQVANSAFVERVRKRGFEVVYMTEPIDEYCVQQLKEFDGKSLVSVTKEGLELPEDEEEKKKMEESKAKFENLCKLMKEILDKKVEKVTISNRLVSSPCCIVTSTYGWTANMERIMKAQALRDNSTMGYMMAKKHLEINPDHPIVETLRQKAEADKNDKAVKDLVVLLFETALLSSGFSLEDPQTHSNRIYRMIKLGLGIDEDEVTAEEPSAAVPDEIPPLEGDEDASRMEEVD
T2 sequence (P09055 21-798 limits assumed): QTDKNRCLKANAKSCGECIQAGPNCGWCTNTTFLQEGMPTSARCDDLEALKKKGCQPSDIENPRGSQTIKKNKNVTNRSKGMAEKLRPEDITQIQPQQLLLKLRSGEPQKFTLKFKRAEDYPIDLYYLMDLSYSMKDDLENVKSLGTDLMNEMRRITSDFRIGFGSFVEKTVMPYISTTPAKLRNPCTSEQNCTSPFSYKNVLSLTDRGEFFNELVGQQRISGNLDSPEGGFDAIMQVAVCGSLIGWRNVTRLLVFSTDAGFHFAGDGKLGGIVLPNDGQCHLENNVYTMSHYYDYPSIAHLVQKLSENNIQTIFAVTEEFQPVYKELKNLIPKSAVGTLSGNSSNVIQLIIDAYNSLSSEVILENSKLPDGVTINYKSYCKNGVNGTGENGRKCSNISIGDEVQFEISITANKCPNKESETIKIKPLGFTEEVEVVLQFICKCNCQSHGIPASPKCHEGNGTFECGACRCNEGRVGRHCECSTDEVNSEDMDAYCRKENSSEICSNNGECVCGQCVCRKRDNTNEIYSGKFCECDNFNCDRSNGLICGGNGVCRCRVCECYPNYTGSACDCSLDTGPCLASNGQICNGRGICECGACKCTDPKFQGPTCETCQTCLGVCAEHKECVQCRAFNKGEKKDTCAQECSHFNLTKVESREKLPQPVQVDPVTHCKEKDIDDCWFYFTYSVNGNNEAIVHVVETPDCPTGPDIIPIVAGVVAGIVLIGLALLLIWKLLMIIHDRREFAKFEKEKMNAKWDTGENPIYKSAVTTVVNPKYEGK

B1: annexin A2 (ANXA2), endogenous, in conditioned medium of SCp2 cells (other, mouse, UniProt P07356 2-339, looked up)
chain: STVHEILCKLSLEGDHSTPPSAYGSVKPYTNFDAERDALNIETAVKTKGVDEVTIVNILTNRSNVQRQDIAFAYQRRTKKELPSALKSALSGHLETVILGLLKTPAQYDASELKASMKGLGTDEDSLIEIICSRTNQELQEINRVYKEMYKTDLEKDIISDTSGDFRKLMVALAKGRRAEDGSVIDYELIDQDARELYDAGVKRKGTDVPKWISIMTERSVCHLQKVFERYKSYSPYDMLESIKKEVKGDLENAFLNLVQCIQNKPLYFADRLYDSMKGKGTRDKVLIRIMVSRSEVDMLKIRSEFKRKYGKSLYYYIQQDTKGDYQKALLYLCGGDD
Consider B1, for which, in test [1], the binding result was “no binding”.

B2: myristoylated alanine-rich C-kinase substrate (MARCKS), endogenous, in conditioned medium of SCp2 cells (other, mouse, UniProt P26645 2-309, looked up)
chain: GAQFSKTAAKGEATAERPGEAAVASSPSKANGQENGHVKVNGDASPAAAEPGAKEELQANGSAPAADKEEPASGSAATPAAAEKDEAAAATEPGAGAADKEAAEAEPAEPSSPAAEAEGASASSTSSPKAEDGAAPSPSSETPKKKKKRFSFKKSFKLSGFSFKKSKKESGEGAEAEGATAEGAKDEAAAAAGGEGAAAPGEQAGGAGAEGAAGGEPREAEAAEPEQPEQPEQPAAEEPQAEEQSEAAGEKAEEPAPGATAGDASSAAGPEQEAPAATDEAAASAAPAASPEPQPECSPEAPPAPTAE
In the case of B2, in test [1], the binding result is “no binding”.

B3: MMP14F-dCAT (FLAG tagged human MMP14, catalytic domain deleted mutant, deletion of Tyr112-Pro312) (enzyme)
chain: not shown
notes: also called MMP14dCAT; not shown: FLAG tag
As for B3, the binding result in test [2] is “no binding”.
